Measured values taken from the RNAGym collection of RNA variant scans (doi:10.7554/elife.90254).

B1: LINE1-full (parent)
chain: UACGUAGGUGGUUUUCCCCUGAUAGUGCUAAGGGGGCCUGGAAGUUUGGACUGGGCAGAGCUCAACACAGCGUGGCAAAGUGGCUGUGGCUAGACUGCCUCUCUGGAUUCCUCGUCACUCAGCAGGGCAUCUCUGAGAGAAAUGCC

Variants of: B1
Experiment: self-cleavage, relative activity (ratio to wild type); higher = more cleavage; in vitro, sequencing; the parent is a self-cleaving ribozyme

In order of rising self-cleavage:
1. UACGUAGGUGGUUUUCCCCUGAUAGUGCUAAGGGGGCCUGGAAGUUUGGACUGGGCAGAGCUCAACACAGCGUGGCAAAGUGGCUGUGGCUAGACUGCCACUCUGGAUUCCUCGUCACUCAGCAGGGCAUCUCUGAGAUAAAUGCC [U100A G139U]  0.31
2. UACGUAGGUGGUUUUCCCCUGAUAGUGCUAAGGGGGCCUGGAAGUUUGGACUGGGCAGAGCUCAACACAGCGUGGCAAAGUGGCUGUGGCUAGACUGCCACUCUGGAUUCCUCGUCACUCAGCAGGGCAUCACUGAGAGAAAUGCC [U100A U132A]  0.31
3. UACGUAGGUGGUUUUCCCCUGAUAGUGCUAAGGGGGCCUGGAAGUUUGGACUGGGCAGAGCUCAACACAGCGUGGCAAAGUGGCUGUGGCUAGACUGCUUCUCUGGAUUCCUCGACACUCAGCAGGGCAUCUCUGAGAGAAAUGCC [C99U U115A]  0.33
4. UACGUAGGUGGUUUUCCCCUGAUAGUGCUAAGGGGGCCUGGAAGUUUGGACUGGGCAGAGCUCAACACAGCGUGGCAAAGUGGCUGUGGCUAGACUGCCACUCUGGAUUCCUCGUCACUCAGCAGGGCAUCUCUGAGAGUAAUGCC [U100A A140U]  0.57
5. UACGUAGGUGGUUUUCCCCUGAUAGUGCUAAGGGGGCCUGGAAGUUUGGACUGGGCAGAGCUCAACACAGCGUGGCAAAGUGGCUGUGGCUAGACUGCCACUCUGGAUUCCUCGUCGCUCAGCAGGGCAUCUCUGAGAGAAAUGCC [U100A A117G]  0.61
6. UACGUAGGUGGUUUUCCCCUGAUAGUGCUAAGGGGGCCUGGAAGUUUGGACUGGGCAGAGCUCAACACAGCGUGGCAAAGUGGCUGUGGCUAGACUGCUUCUCUGGAUUCCUCGUCACUCAGCAGGGCACCUCUGAGAGAAAUGCC [C99U U130C]  0.69
7. UACGUAGGUGGUUUUCCCCUGAUAGUGCUAAGGGGGCCUGGAAGUUUGGACUGGGCAGAGCUCAACACAGCGUGGCAAAGUGGCUGUGGCUAGACUGCUUCUCUGGACUCCUCGUCACUCAGCAGGGCAUCUCUGAGAGAAAUGCC [C99U U108C]  0.71
8. UACGUAGGUGGUUUUCCCCUGAUAGUGCUAAGGGGGCCUGGAAGUUUGGACUGGGCAGAGCUCAACACAGCGUGGCAAAGUGGCUGUGGCUAGACUGCCACUCUGGAUUCCUCGUCACACAGCAGGGCAUCUCUGAGAGAAAUGCC [U100A U119A]  0.71
9. UACGUAGGUGGUUUUCCCCUGAUAGUGCUAAGGGGGCCUGGAAGUUUGGACUGGGCAGAGCUCAACACAGCGUGGCAAAGUGGCUGUGGCUAGACUGCCACUCUGGAUUCCUCGACACUCAGCAGGGCAUCUCUGAGAGAAAUGCC [U100A U115A]  0.72
10. UACGUAGGUGGUUUUCCCCUGAUAGUGCUAAGGGGGCCUGGAAGUUUGGACUGGGCAGAGCUCAACACAGCGUGGCAAAGUGGCUGUGGCUAGACUGCCACUCUGGAUUCCUCGUCACUCAGCAGGGCAUCUCUGAGAGAAUUGCC [U100A A142U]  0.74
11. UACGUAGGUGGUUUUCCCCUGAUAGUGCUAAGGGGGCCUGGAAGUUUGGACUGGGCAGAGCUCAACACAGCGUGGCAAAGUGGCUGUGGCUAGACUGCCACUCUGGAUACCUCGUCACUCAGCAGGGCAUCUCUGAGAGAAAUGCC [U100A U109A]  0.76
12. UACGUAGGUGGUUUUCCCCUGAUAGUGCUAAGGGGGCCUGGAAGUUUGGACUGGGCAGAGCUCAACACAGCGUGGCAAAGUGGCUGUGGCUAGACUGCCACUCUGGAUUCCUCGUCACUCAGCAGGGCAUCUCUGAGAGGAAUGCC [U100A A140G]  0.76
13. UACGUAGGUGGUUUUCCCCUGAUAGUGCUAAGGGGGCCUGGAAGUUUGGACUGGGCAGAGCUCAACACAGCGUGGCAAAGUGGCUGUGGCUAGACUGCCACUCUGGGUUCCUCGUCACUCAGCAGGGCAUCUCUGAGAGAAAUGCC [U100A A107G]  0.87
14. UACGUAGGUGGUUUUCCCCUGAUAGUGCUAAGGGGGCCUGGAAGUUUGGACUGGGCAGAGCUCAACACAGCGUGGCAAAGUGGCUGUGGCUAGACUGCCACUCUGGAUUCCUCGUCACUCAGCUGGGCAUCUCUGAGAGAAAUGCC [U100A A124U]  0.88
15. UACGUAGGUGGUUUUCCCCUGAUAGUGCUAAGGGGGCCUGGAAGUUUGGACUGGGCAGAGCUCAACACAGCGUGGCAAAGUGGCUGUGGCUAGACUGCCACUCUGGAUUCCUCGUCACUCAGCAGGGCAUCUCUGAGUGAAAUGCC [U100A A138U]  0.89
16. UACGUAGGUGGUUUUCCCCUGAUAGUGCUAAGGGGGCCUGGAAGUUUGGACUGGGCAGAGCUCAACACAGCGUGGCAAAGUGGCUGUGGCUAGACUGCCACUCUGGAUUCCACGUCACUCAGCAGGGCAUCUCUGAGAGAAAUGCC [U100A U112A]  0.91
17. UACGUAGGUGGUUUUCCCCUGAUAGUGCUAAGGGGGCCUGGAAGUUUGGACUGGGCAGAGCUCAACACAGCGUGGCAAAGUGGCUGUGGCUAGACUGCCACUCUGGAAUCCUCGUCACUCAGCAGGGCAUCUCUGAGAGAAAUGCC [U100A U108A]  0.97
18. UACGUAGGUGGUUUUCCCCUGAUAGUGCUAAGGGGGCCUGGAAGUUUGGACUGGGCAGAGCUCAACACAGCGUGGCAAAGUGGCUGUGGCUAGACUGCCACUCUGGAUUCCUCGUCAUUCAGCAGGGCAUCUCUGAGAGAAAUGCC [U100A C118U]  0.98
19. UACGUAGGUGGUUUUCCCCUGAUAGUGCUAAGGGGGCCUGGAAGUUUGGACUGGGCAGAGCUCAACACAGCGUGGCAAAGUGGCUGUGGCUAGACUGCCACUCUGGAUUCCUCGUCACUCAGCAGGGCAUCUCUGAGAGAACUGCC [U100A A142C]  1
20. UACGUAGGUGGUUUUCCCCUGAUAGUGCUAAGGGGGCCUGGAAGUUUGGACUGGGCAGAGCUCAACACAGCGUGGCAAAGUGGCUGUGGCUAGACUGCCACUCUGGAUUCCUCGUCUCUCAGCAGGGCAUCUCUGAGAGAAAUGCC [U100A A117U]  1.01
21. UACGUAGGUGGUUUUCCCCUGAUAGUGCUAAGGGGGCCUGGAAGUUUGGACUGGGCAGAGCUCAACACAGCGUGGCAAAGUGGCUGUGGCUAGACUGCCACUCUGGAUUCCUCGUCACUCAGCAGAGCAUCUCUGAGAGAAAUGCC [U100A G126A]  1.03
22. UACGUAGGUGGUUUUCCCCUGAUAGUGCUAAGGGGGCCUGGAAGUUUGGACUGGGCAGAGCUCAACACAGCGUGGCAAAGUGGCUGUGGCUAGACUGCUUCUCUGGAUUCCUCGUCACUCAGCAGGGCAUCUCUGAGAGAAAUGAC [C99U C145A]  1.03
23. UACGUAGGUGGUUUUCCCCUGAUAGUGCUAAGGGGGCCUGGAAGUUUGGACUGGGCAGAGCUCAACACAGCGUGGCAAAGUGGCUGUGGCUAGACUGCCACUCUGGAUUCCCCGUCACUCAGCAGGGCAUCUCUGAGAGAAAUGCC [U100A U112C]  1.09
24. UACGUAGGUGGUUUUCCCCUGAUAGUGCUAAGGGGGCCUGGAAGUUUGGACUGGGCAGAGCUCAACACAGCGUGGCAAAGUGGCUGUGGCUAGACUGCCACUCUGGAUUCCUCGUCACUCAGCAGGGCAUCUCCGAGAGAAAUGCC [U100A U134C]  1.12
25. UACGUAGGUGGUUUUCCCCUGAUAGUGCUAAGGGGGCCUGGAAGUUUGGACUGGGCAGAGCUCAACACAGCGUGGCAAAGUGGCUGUGGCUAGACUGCCACUCUGGAUUCCUCGUCACUCAGCAGGGCAUCUCUGAGAGAAAUGUC [U100A C145U]  1.15
26. UACGUAGGUGGUUUUCCCCUGAUAGUGCUAAGGGGGCCUGGAAGUUUGGACUGGGCAGAGCUCAACACAGCGUGGCAAAGUGGCUGUGGCUAGACUGCUUCUCUGGAUUCCUCGCCACUCAGCAGGGCAUCUCUGAGAGAAAUGCC [C99U U115C]  1.15
27. UACGUAGGUGGUUUUCCCCUGAUAGUGCUAAGGGGGCCUGGAAGUUUGGACUGGGCAGAGCUCAACACAGCGUGGCAAAGUGGCUGUGGCUAGACUGCCACUCUGGAUUCCUCGUCACUCAGCAGGGCAUCUCUGAGGGAAAUGCC [U100A A138G]  1.18
28. UACGUAGGUGGUUUUCCCCUGAUAGUGCUAAGGGGGCCUGGAAGUUUGGACUGGGCAGAGCUCAACACAGCGUGGCAAAGUGGCUGUGGCUAGACUGCCACUCUGGAUUCAUCGUCACUCAGCAGGGCAUCUCUGAGAGAAAUGCC [U100A C111A]  1.19
29. UACGUAGGUGGUUUUCCCCUGAUAGUGCUAAGGGGGCCUGGAAGUUUGGACUGGGCAGAGCUCAACACAGCGUGGCAAAGUGGCUGUGGCUAGACUGCCCCUCUGGAUUCCUCGUCACUCGGCAGGGCAUCUCUGAGAGAAAUGCC [U100C A121G]  1.21
30. UACGUAGGUGGUUUUCCCCUGAUAGUGCUAAGGGGGCCUGGAAGUUUGGACUGGGCAGAGCUCAACACAGCGUGGCAAAGUGGCUGUGGCUAGACUGCCACUCUGGAUUCCUCGUCACUCAGCAGGGCAUCUCUGGGAGAAAUGCC [U100A A136G]  1.25
31. UACGUAGGUGGUUUUCCCCUGAUAGUGCUAAGGGGGCCUGGAAGUUUGGACUGGGCAGAGCUCAACACAGCGUGGCAAAGUGGCUGUGGCUAGACUGCCACUCUGGAUUCCUCGUCACUCAGCCGGGCAUCUCUGAGAGAAAUGCC [U100A A124C]  1.28
32. UACGUAGGUGGUUUUCCCCUGAUAGUGCUAAGGGGGCCUGGAAGUUUGGACUGGGCAGAGCUCAACACAGCGUGGCAAAGUGGCUGUGGCUAGACUGCCCCUCUGGAUUCCUCGUCCCUCAGCAGGGCAUCUCUGAGAGAAAUGCC [U100C A117C]  1.31
33. UACGUAGGUGGUUUUCCCCUGAUAGUGCUAAGGGGGCCUGGAAGUUUGGACUGGGCAGAGCUCAACACAGCGUGGCAAAGUGGCUGUGGCUAGACUGCCCCUCUGGAUUCCUCGUCGCUCAGCAGGGCAUCUCUGAGAGAAAUGCC [U100C A117G]  1.49
34. UACGUAGGUGGUUUUCCCCUGAUAGUGCUAAGGGGGCCUGGAAGUUUGGACUGGGCAGAGCUCAACACAGCGUGGCAAAGUGGCUGUGGCUAGACUGCCACUCUGGAUUCCUCGUCACUCGGCAGGGCAUCUCUGAGAGAAAUGCC [U100A A121G]  1.58
35. UACGUAGGUGGUUUUCCCCUGAUAGUGCUAAGGGGGCCUGGAAGUUUGGACUGGGCAGAGCUCAACACAGCGUGGCAAAGUGGCUGUGGCUAGACUGCCCCUCUGGAUUCCUCGUCUCUCAGCAGGGCAUCUCUGAGAGAAAUGCC [U100C A117U]  1.63
36. UACGUAGGUGGUUUUCCCCUGAUAGUGCUAAGGGGGCCUGGAAGUUUGGACUGGGCAGAGCUCAACACAGCGUGGCAAAGUGGCUGUGGCUAGACUGCCACUCUGGACUCCUCGUCACUCAGCAGGGCAUCUCUGAGAGAAAUGCC [U100A U108C]  1.96
37. UACGUAGGUGGUUUUCCCCUGAUAGUGCUAAGGGGGCCUGGAAGUUUGGACUGGGCAGAGCUCAACACAGCGUGGCAAAGUGGCUGUGGCUAGACUGCCCCUCUGGAUUCCUCGUCACUCUGCAGGGCAUCUCUGAGAGAAAUGCC [U100C A121U]  2.11
38. UACGUAGGUGGUUUUCCCCUGAUAGUGCUAAGGGGGCCUGGAAGUUUGGACUGGGCAGAGCUCAACACAGCGUGGCAAAGUGGCUGUGGCUAGACUGCCACUCUGGAUUCCUCGUCACUCAGCAGGGCACCUCUGAGAGAAAUGCC [U100A U130C]  2.57
39. UACGUAGGUGGUUUUCCCCUGAUAGUGCUAAGGGGGCCUGGAAGUUUGGACUGGGCAGAGCUCAACACAGCGUGGCAAAGUGGCUGUGGCUAGACUGCCCCUCUGGCUUCCUCGUCACUCAGCAGGGCAUCUCUGAGAGAAAUGCC [U100C A107C]  2.87
